# Experiment: soluble on expression in E. coli; label from the status in PepcDB or PDB records
row,Sequence,soluble on expression in E. coli
1,MAVARWLRDHSGPDDVVATNAHCRFAVSDSCDNRHFWISGYTERRVLVEGWGYTARTLASLTDVDREPMGAVPFWDAELLAANDAVFTAPTARAVDLLARRYGVRWLMVDRRRPLTAPDLGQFARLRYARGSFAVYSTLS,not soluble
2,MFQLSTQDIHLAAQADNKNAAITQVAAALTQAGCVTAAYVDGMLAREQQTSTYLGNGIAIPHGTTDTRDQVLNTGVQVFQFPQGIEWGADQTAYIVIGIAARSDEHLALLRQLTHVLSDDAVAARLAKTTSAEELRSLLMGEQKTAEFHFDTSLIALDVAADNLITLQALNAGRLQQIGAVDARFVSDVITREPLNLGQGIWLSDSTEGNLVSAVTISRPATAFEHKGEKVALLLTLSVADDQPLTVLNYLSELLLAQKADALLNADAAALLALLTSEYVEQSKVLSAEFVIRNEHGLHARPGTILVNTIKQFTSEITVTNLDGTGKPANGRSLMKVVALGVKKGNRLRFTASGEDAQTALDTIGEVIAAGLGEGAA,not soluble
3,LQQFLDALASSPEKIEFETTMAVIEDNYDFTPAAFTNGNTQNDANENNGSCKIFAFGLLNALDKEATLACFGRFYREDVLLHPENNDHQNIRNFMVTGWEGIQFETSALTAK,not soluble
4,MTGTYEQPVIDATYHNDDQGGHANQLVLKYVEDRKLSKVFKRICDSFKDYYNQPEDMTDEELDYQRVVSLSKSTQGKVNNRDTLIAFISDHNQLAEHLSMNYKEMTPEDLGAILESISQAFNHLYDMVVEGQLLVK,not soluble
5,MSLLTQIKGEWVLGFADGNHRMLRDASVVYEGERIVHVGTEFDGVADRVIDARGCLVAPGFIDTHVHSGHRALHKLLADGGRPDLFGQPYMDVTIARDGTRIKGYPNYLSREEAAVDPGIALHAAFTVAELLRNGVTTFVELGGHVMVQEALWRECERLGVRGYLGAGYDSGRWAADDQGRLRRVPYPDGGDHLFEEAVAFIKRVQAAGNDLVNGILVPREVENCSVDILRRTVQAAQELGVPMATHAGYNVIEFYETVREHRMTPIELLHSVGMLGPRLNIGHANLISDSPRLNYSGGRDLALMGEHRVSISHCPINIVRRARVLDSWKKYREAGVNLTIGSDTYPRDMVMNMRTASYHGKVMSHDLTAASAAEVFEAATLGGARSLGRTDIGRLEPGARADVIAINVGRQDVLRYGPIWDPIRSLVECGVGDDVELVVTNGQVRMEQGRIVGVDLGALRAEAQQFADNVWRDLQDWDPLRRTAQAMCPPLFCPDCMEGHHHHHH,soluble
6,VTGPTEESAVATVADWPEGLAAVLRGAADQARAAVVEFSGPEAVGDYLGVSYEDGNAATHRFIAHLPGYQGWQWAVVVASYSGADHATISEVVLVPGPTALLAPDWVPWEQRVRPGDLSPGDLLAPAKDDPRLVPGYTASGDAQVDETAAEIGLGRRWVMSAWGRAQSAQRWHDGDYGPGSAMARSTKRVCRDCGFFLPLAGSLGAMFGVCGNELSADGHVVDRQYGCGAHSDTTAPAGGSTPIYEPYDDGVLDIIEKPAES,soluble
7,MFVGPSPPHTPLVNRRNINNHRPRNATVTSALPDIFLAAVSLLFLWSSPKPLVSLPPNRFSFPLNPRRRSITAMSRRSPPPPPPTQRFANPQSLSDWLESRLPSDSFAAWGVKPGTKNVHNLWLELSDGETSLADSTPPVRTVNVVTVRVIGKNGRILVEAHQELSDGSIRERFRPLSEKMKPEESPDEAVFRAIKEELGSIFNGDGDNIGQRIKILPGTYNRRVEERNSLSYPGLPARYALHSVNATVEGLPEQDFCTEEKEYEGGDSTKDSVETLAAGNAVTVKRHYWKWVSPDSIRS,not soluble
8,MWNETVEHENAGNGWAAGESSFMTDRKPDSKATTLGERLPVPVTISNLIEHFSAQDDKYVVGTFRFATVLTVGIVKDISQDGTTYTYDLCDPNNTEMEYRTLKYDNEGSTFDHSSIVEGTRVRAIGKLKGFDGNNTIMLFNITPVEDDKDFTIFELEAEAARLFFQKNVSEKLKSVDSDGFQGMLAPPKSRMSQTSHQSSQGSDTKERLYAQPQKVMTGANQGDVLRERITAVLMAVPEGSRDEGRHVSWIAEQIQETNISIVRKCVGEMVENGLVYTTVDEETVSAI,not soluble
9,MGSDKIHHHHHHMASSSEGVSVLEIECKVVTPMFSRGAAEPKWENGNRVYPFELRPQSIKGVLRFWFRAIAPTVIDIYSLEGLENLSKKEKERWEKEKYKGLKYLEGLIFGSQERKSSFSLEVKVEGESQALGKYMNNRFSFTDDRLKDTKYALYGLYDKSGIYEYLQEGKNFIIILQTANDSIKGIILSLLKLVSTFSGFGAKTRKGFGEFEIVDPKLTRNDYNLVISECQEHIREFVNHHNSSSKVKIKLGRTNFNGIPDFPCFCDYKIFEITKFSGNSPLEVLREVFKVGRNFKGWYPSLKQKMRFSEGDCVKDLVEALEGLLKGRKTEKKIEIPTAVVGLPIQYQNLGRGEIRRLKVIVSSSLRGLGIDDIDGRKASPLFLSVHEGERGKWKLVVLLMRSRVTNDGELITEVKGGKTPSSGIKTIVKEEKDYKNLLEWIKKLGGKEIQGG,not soluble
10,MGSDKIHHHHHHMQVEGLSINLATIREQCGFAEAVDICLKHGITAIAPWRDQVAAIGLGEAGRIVRANGLKLTGLCRGGFFPAPDASGREKAIDDNRRAVDEAAELGADCLVLVAGGLPGGSKNIDAARRMVVEGIAAVLPHARAAGVPLAIEPLHPMYAADRACVNTLGQALDICETLGPGVGVAIDVYHVWWDPDLANQIARAGKMKAILAHHICDWLVPTKDMLTDRGMMGDGVIDLKGIRRRIEAAGFHGAQEVEIFSADNWWKRPADEVIATCVERYRNCC,not soluble
11,TVSVLLPFVATEFYRRLVEGIEGVLLEQRYDLALFPILSLARLKRYLENTTLAYLTDGLILASYDLTERFEEGRLPTERPVVLVDAQNPRYDSVYLDNRLGGRLAGAYLARFPGPIFAIAVEEEPDRAFRRTVFAERMAGFQEALKEAGRPFSPDRLYITRHSQEGGRLALRHFLEKASPPLNVFAGADQVALGVLEEAVRLGLTPGRDVRVLGFDGHPFAEEAGLSTIAQPVEAMGARAAQLLLERMRGYQGPPREVRFEPVLVERASTGTPPAA,soluble
12,AASSAQCDFGGPFQAYKSVNGPGNGGYYLRKTTKPGTPECAYVLVPQNTLSEGQSTSFTYGKLQNGQMIQLTATVTVNGDKIEVTGAGQDLSGTTTVLFSDYRSCDVMRGPDGNYELWVHSSAINLQSYGCCDTKFAQVAGGRPIHHTWQTYCPPLP,soluble
13,GMYANKVKKIAAVHDLSGMGRVSLTVVIPILSSMGFQVCPLPTAVLSNHTQYPGFSFLDLTDEMPKIIAEWKKLEVQFDAIYTGYLGSPRQIQIVSDFIKDFRQPDSLIVADPVLGDNGRLYTNFDMEMVKEMRHLITKADVITPNLTELFYLLDEPYKADSTDEELKEYLRLLSDKGPQVVIITSVPVHDEPHKTSVYAYNRQGNRYWKVTCPYLPAHYPGTGDTFTSVITGSLMQGDSLPMALDRATQFILQGIRATFGYEYDNREGILLEKVLHNLDMPIQMASYELI,soluble
14,MGSDKIHHHHHHMIVEKRRFPSPSQHVRLYTICYLSNGLRVKGLLAEPAEPGQYDGFLYLRGGIKSVGMVRPGRIIQFASQGFVVFAPFYRGNQGGEGNEDFAGEDREDAFSAFRLLQQHPNVKKDRIHIFGFSRGGIMGMLTAIEMGGQAASFVSWGGVSDMILTYEERQDLRRMMKRVIGGTPKKVPEEYQWRTPFDQVNKIQAPVLLIHGEKDQNVSIQHSYLLEEKLKQLHKPVETWYYSTFTHYFPPKENRRIVRQLTQWMKNR,not soluble
15,GSHMTAEADTSSELAKKSKEVFRKEMSQFIVQCLNPYRKPDCKVGRITTTEDFKHLARKLTHGVMNKELKYCKNPEDLECNENVKHKTKEYIKKYMQKFGAVYKPKEDTELE,soluble
16,SAFSGTWQVYAQENYEEFLRAISLPEEVIKLAKDVKPVTEIQQNGSDFTITSKTPGKTVTNSFTIGKEAEITTMDGKKLKCIVKLDGGKLVTRTDRFSHIQEIKAGEMVETLTVGGTTMIRKSKKILVP,soluble
17,GACEQNEDWVVNEPMQSFEENPEYAPLNTIPDWVSEKVTPKEYELWRTMSSRYEINYSFLKKDISEKRKKEIYDCINNICERIEKGQINKYEGFLNIADEDGTTLSDSQYFGRIATRSPEGGAEYKTNGCTLYTHSLGPYIKAAVTYKKSDDDVTITSSSVYTGSPYLGNDPSFSGASSVSYDKDKKLIAASCSGTLSFKDGSRKVEVTVQKTGFMIP,soluble
